Article PMC10908814

Target: T1, NgAgo (engineered Natronobacterium gregoryi Argonaute) (Natronobacterium gregoryi) (UniProt L0AJX6)
T1 sequence: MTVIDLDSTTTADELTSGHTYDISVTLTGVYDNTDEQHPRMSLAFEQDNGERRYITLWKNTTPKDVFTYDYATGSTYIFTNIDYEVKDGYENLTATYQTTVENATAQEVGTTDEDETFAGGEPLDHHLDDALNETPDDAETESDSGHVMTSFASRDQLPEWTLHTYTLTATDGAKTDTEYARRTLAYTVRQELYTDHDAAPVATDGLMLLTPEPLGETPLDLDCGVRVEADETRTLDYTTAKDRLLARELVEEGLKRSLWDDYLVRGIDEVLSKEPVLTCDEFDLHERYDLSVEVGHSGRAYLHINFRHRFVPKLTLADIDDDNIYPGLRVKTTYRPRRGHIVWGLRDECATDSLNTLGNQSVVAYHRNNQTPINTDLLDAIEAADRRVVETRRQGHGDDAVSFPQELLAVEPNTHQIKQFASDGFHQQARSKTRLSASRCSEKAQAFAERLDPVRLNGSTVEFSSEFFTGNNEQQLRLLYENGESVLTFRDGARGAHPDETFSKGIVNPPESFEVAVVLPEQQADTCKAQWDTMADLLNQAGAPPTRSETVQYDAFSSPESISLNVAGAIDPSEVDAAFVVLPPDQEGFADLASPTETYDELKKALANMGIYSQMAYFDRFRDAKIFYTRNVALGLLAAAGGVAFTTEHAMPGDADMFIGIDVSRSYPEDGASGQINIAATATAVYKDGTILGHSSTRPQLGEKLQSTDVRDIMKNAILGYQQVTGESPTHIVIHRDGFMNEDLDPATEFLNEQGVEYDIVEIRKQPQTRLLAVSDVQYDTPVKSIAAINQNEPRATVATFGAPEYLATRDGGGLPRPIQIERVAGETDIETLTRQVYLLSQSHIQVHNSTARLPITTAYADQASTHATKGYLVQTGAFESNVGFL
Assay: SPR
Conditions: 5'-phosphate on guide; SPR: 10 mM HEPES, 150 mM NaCl, 3 mM EDTA, pH 7.4, 0.005% Tween-20, temperature not stated; EMSA: 2% agarose, 1x TAE, 100 V

Sequence “TAAACCCAAAGAATGTCTGAGGGG / CCCTCCTTTTGTAAACAATGCATTCATCGACCTTCCAGCCGGGGTTGGTTCTGCCCCTCTCTCTGTCCTTCAGAGGAACCAGGGACCTCGGGCACCCCAGAGCCCCTCGGGCCCGCCTCCAGGCGCCCTCCTGGTCTCCGCTCCCCTCTGAGCCCCGTTAAACCCAAAGAATGTCTGAGGGGAGCCACCCTCGGGGCCCAGGCCCCAGAGTCACAC / CCCCTCAGACATTCTTTGGGTTTA [g3 guide / EBV cfDNA SPR amplicon]” has a Kd of 5.49 nM.
